Results published in patent US20210318322A1 (Janssen / Centocor, published 2021).
Numbering of substitutions follows the chain as printed.

T1: human VISTA expressed on cells (human, UniProt Q9H7M9 33-295)
T1 sequence: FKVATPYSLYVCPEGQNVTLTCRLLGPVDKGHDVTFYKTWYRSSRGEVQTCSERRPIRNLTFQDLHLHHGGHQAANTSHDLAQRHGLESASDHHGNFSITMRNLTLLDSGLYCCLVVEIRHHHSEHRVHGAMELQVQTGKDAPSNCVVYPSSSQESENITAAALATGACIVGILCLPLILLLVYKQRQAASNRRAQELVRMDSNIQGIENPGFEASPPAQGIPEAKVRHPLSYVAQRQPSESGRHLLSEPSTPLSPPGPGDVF

T2: cynomolgus VISTA extracellular domain (cynomolgus, UniProt A0A7N9IB00 33-194)
T2 construct: extracellular domain; also called cyno VISTA ECD; SB0361 (cyno (cynomolgus))
T2 sequence: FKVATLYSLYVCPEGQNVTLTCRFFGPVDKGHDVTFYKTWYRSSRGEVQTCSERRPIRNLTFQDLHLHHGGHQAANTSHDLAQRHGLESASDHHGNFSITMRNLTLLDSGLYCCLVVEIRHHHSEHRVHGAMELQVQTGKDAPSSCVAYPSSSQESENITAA

B1: VSTB95 (antibody, human IgG1, kappa, V domains shown)
VH: EVQLVESGGGLVQPGGSLRLSCAASGFTFRNYGMSWVRQAPGKGLEWVASIISGGSYTYYPDSVKGRFTISRDNAKNSLYLQMNSLRAEDTAVYYCARIYDHDGDYYAMDYWGQGTTVTVSS
VL: DIVMTQSPLSLPVTPGEPASISCRSSQSIVHSNGNTYLEWYLQKPGQSPQLLIYKVSNRFSGVPDRFSGSGSGTDFTLKISRVEAEDVGVYYCFQGSHVPWTFGQGTKLEIKR
notes: also called S16; INX Code 16
B2: VSTB53 (antibody, human IgG1, kappa, V domains shown)
VH: QVQLVQSGAEVKKPGASVKVSCKASGYTFTHYTIHWVRQAPGQGLEWMGYIIPSSGYSEYNQKFKDRVTMTRDTSTSTVYMELSSLRSEDTAVYYCARGAYDDYYDYYAMDYWGQGTLVTVSS
VL: B1 VL with S28T, G96A
notes: also called S43; INX Code 43
B3: VSTB50 (antibody, human IgG1, kappa, V domains shown)
VH: QVQLVQSGSELKKPGASVKVSCKASGYTFTNYGLNWVRQAPGQGLEWMGWINPYTGEPTYADDFKGRFVFSLDTSVSTAYLQICSLKAEDTAVYYCAREGYGNYIFPYWGQGTLVTVSS
VL: DIVMTQTPLSLSVTPGQPASISCRASESVDTYANSLMHWYLQKPGQPPQLLIYRASNLESGVPDRFSGSGSGTDFTLKISRVEAEDVGVYYCQQTNEDPRTFGQGTKLEIKR
notes: also called S41; INX Code 41
B4: VSTB116 (antibody, human IgG1, kappa)
heavy: not shown
light: DIQMTQSPSSLSASVGDRVTITCRASQSINTNLNWYQQKPGKAPKLLIYAASSLQSGVPSRFSGSGSGTDFTLTISSLQPEDFATYYCQQARDTPITFGQGTKVEIKRTVAAPSVFIFPPSDEQLKSGTASVVCLLNNFYPREAKVQWKVDNALQSGNSQESVTEQDSKDSTYSLSSTLTLSKADYEKHKVYACEVTHQGLSSPVTKSFNRGEC
notes: also called S5; INX Code 5
B5: VSTB60 (antibody, human IgG1, kappa, V domains shown)
VH: B3 VH with L34M, N35T, P53T, P58S, E99D, G100Y, N103I, I105V, F106S, P107A
VL: B3 VL with T31N, L36F, P47S, T95S, N96H, R100Y
notes: also called S47; INX Code 47
B6: VSTB112 (antibody, human IgG1, kappa)
heavy: not shown
light: B4 light with N30D, N32R, A50S, A91S, R92A, D93Y, T94N
notes: also called S2; INX Code 2
B7: VSTB174 (antibody, human IgG1, kappa)
heavy: not shown
light: B4 light with N30D, N32R, A50S, A91S, R92A, D93Y, T94N

Target: T1, human VISTA expressed on cells
Assay: cell-based or functional assay

| IC50, CPM in the SEB assay | IC50, IFN-gamma in the SEB assay | Binder |
| --- | --- | --- |
| -1.12 log10 of antibody concentration | 0.05 log10 of antibody concentration | B1 |
| -1.06 log10 of antibody concentration | -1.05 log10 of antibody concentration | B2 |
| -0.74 log10 of antibody concentration | 1.69 log10 of antibody concentration | B3 |
| -1.44 log10 of antibody concentration | -0.35 log10 of antibody concentration | B4 |

Target: T1, human VISTA expressed on cells
Assay: cell-based or functional assay
Remark: another data set of the same source

| EC50 IFN-gamma production, MLR | EC50 proliferation, MLR | Binder |
| --- | --- | --- |
| 1.67 µg/mL | 0.29 µg/mL | B1 |
| 1.88 µg/mL | 0.47 µg/mL | B2 |
| 1.14 µg/mL | 0.77 µg/mL | B3 |
| 2.48 µg/mL | 1.04 µg/mL | B5 |
| 0.69 µg/mL | 0.17 µg/mL | B4 |

Target: T2, cynomolgus VISTA extracellular domain
Assay: SPR ProteOn

| Kd | koff | kon | Binder |
| --- | --- | --- | --- |
| 0.192 nM | 8.53e-05 s⁻¹ | 443000 M⁻¹ s⁻¹ | B1 |
| 0.0528 nM | 6.22e-05 s⁻¹ | 1.18e+06 M⁻¹ s⁻¹ | B2 |
| 0.31 nM | 0.000219 s⁻¹ | 708000 M⁻¹ s⁻¹ | B3 |
| 0.252 nM | 0.000143 s⁻¹ | 569000 M⁻¹ s⁻¹ | B5 |
| 0.0866 nM |  |  | B6 |
| 0.137 nM | 0.000117 s⁻¹ | 851000 M⁻¹ s⁻¹ | B4 |

Target: T3, human VISTA extracellular domain (human, UniProt Q9H7M9 33-194)
T3 construct: also called human VISTA ECD; SB0361 (human)
Assay: SPR ProteOn

| Kd | koff | kon | Binder |
| --- | --- | --- | --- |
| 0.126 nM | 6.99e-05 s⁻¹ | 554000 M⁻¹ s⁻¹ | B1 |
| 0.0264 nM | 3.3e-05 s⁻¹ | 1.25e+06 M⁻¹ s⁻¹ | B2 |
| 0.632 nM | 0.000305 s⁻¹ | 482000 M⁻¹ s⁻¹ | B3 |
| 0.356 nM | 0.000183 s⁻¹ | 514000 M⁻¹ s⁻¹ | B5 |
| 0.213 nM | 0.000267 s⁻¹ | 1.25e+06 M⁻¹ s⁻¹ | B4 |

Target: T2, cynomolgus VISTA extracellular domain
Assay: SPR ProteOn
Remark: another data set of the same source

| Kd | Binder |
| --- | --- |
| 0.0866 nM | B7 |

Target: T1, human VISTA expressed on cells
Assay: cell-based or functional assay
Remark: another data set of the same source

| IC50, CPM in the MLR | IC50, IFN-gamma in the MLR | Binder |
| --- | --- | --- |
| -0.54 log10 of antibody concentration | 0.22 log10 of antibody concentration | B1 |
| -0.33 log10 of antibody concentration | 0.27 log10 of antibody concentration | B2 |
| -0.12 log10 of antibody concentration | 0.06 log10 of antibody concentration | B3 |
| 0.02 log10 of antibody concentration | 0.4 log10 of antibody concentration | B5 |
| -0.78 log10 of antibody concentration | -0.16 log10 of antibody concentration | B4 |
